{
  "source": "patent US20240240141A1",
  "about": "“RAPID AND EFFICIENT CLINICAL GRADE PIGMENT EPITHELIUM INDUCTION METHOD, KIT, AND APPLICATION” (ALLIFE MEDICINE (ZHUHAI) LIMITED, priority 2021, published 2024)",
  "molecules": {"B1": {"name": "noggin (protein, UniProt Q13253 28-232, looked up)", "Noggin": "QHYLHIRPAPSDNLPLVDLIEHPDPIFDPKEKDLNETLLRSLLGGHYDPGFMATSPPEDRPGGGGGAAGGAEDLAELDQLLRQRPSGAMPSEIKGLEFSEGLAQGKKQRLSKKLRRKLQMWLWSQTFCPVLYAWNDLGSRFWPRYVKVGSCFSKRSCSVPEGMVCKPSKSVHLTVLRWRCQRRGGQRCGWIPIQYPIISECKCSC"}},
  "system": "iPSCs",
  "experiment": "qPCR of PAX6 expression in iPSCs cultured in RDM1 with different BMP signaling pathway inhibitors",
  "type": "cell-based",
  "details": "50 ng/mL noggin in RDM1 culture medium, day 6, Day 0 as control; compared with 2 μM Dorsomorphin or 3 μM LDN-193189 (FIG. 9)",
  "protocol": "1. Collect 200W cells, adding 1 ml TRIZOL, extracting RNA and determining the RNA concentration. Taking 1 μg RNA and reverse-transcribing it into cDNA. Premixing according to the system as follows in Table 1.\n2. Then putting the above system into the Light cycler instrument for reaction according to the 3-step method with a number of cycles of 45. The reaction system is as follows in Table 2:\niPSCs were cultured according to the method of Example 1. 50 ng/mL noggin, 2 μM Dorsomorphin or 3 μM LDN-193189 was added to the RDM1 culture medium as three sets of parallel controls. The expression level of PAX6 in the cells on day 6 was detected.\nThe results are shown in FIG. 9: Day 0 was used as a control. The expression level of PAX6 was detected after 6 days of cell differentiation.",
  "data": [
    {"molecule": "B1", "values": [
      {"measurement": "expression level of PAX6", "value": "the best effect and the highest expression level of PAX6"}
    ]}
  ]
}
